Data on one substance can be found in publication PMC10930109.

The target in the experiment is Envelope (E) protein of tick-borne encephalitis virus strain Sofjin-Chumakov (Far-Eastern subtype), (Tick-borne encephalitis virus, strain Sofjin-Chumakov) (UniProt P07720). The experiment is described as follows: cryo-EM structure.

As for “Envelope (E) protein of tick-borne encephalitis virus strain Sofjin-Chumakov (Far-Eastern subtype), (from UniProt P07720) (natural protein)”, the stoichiometry N is 2.

The term stoichiometry N denotes the number of molecules, sites or subunits per partner or assembly.
